In publication PMC7190724, “Improved GPCR ligands from nanobody tethering” (Nature Communications, 2020):

Molecular target: PTHR1_(YFPΔECD)

Substance: VHHGFP-PTH(1-9)
- cAMP response (cAMP-activated luciferase luminescence) at the highest concentration tested, 100 nM, against the maximal response observed; precise EC50 could not be obtained (% of the maximal response): 40
